Test results published in publication PMC10237034 (Molecular Cell, 2023).

B1: TFIIH subunit MAT1 (natural protein)
chain: MDDQGCPRCKTTKYRNPSLKLMVNVCGHTLCESCVDLLFVRGAGNCPECGTPLRKSNFRVQLFEDPTVDKEVEIRKKVLKIYNKREEDFPSLREYNDFLEEVEEIVFNLTNNVDLDNTKKKMEIYQKENKDVIQKNKLKLTREQEELEEALEVERQENEQRRLFIQKEEQLQQILKRKNKQAFLDELESSDLPVALLLAQHKDRSTQLEMQLEKPKPVKPVTFSTGIKMGQHISLAPIHKLEEALYEYQPLQIETYGPHVPELEMLGRLGYLNHVRAASPQDLAGGYTSSLACHRALQDAFSGLFWQPS
B2: TFIIH subunit p8 (natural protein)
chain: MVNVLKGVLIECDPAMKQFLLYLDESNALGKKFIIQDIDDTHVFVIAELVNVLQERVGELMDQNAFSLTQK

Assays:
Test in all cases: cryo-EM structure
TFIIH subunit XPB = TFIIH subunit XPB (human, UniProt P19447 1-782)
TFIIH subunit XPB, sequence (P19447 whole entry): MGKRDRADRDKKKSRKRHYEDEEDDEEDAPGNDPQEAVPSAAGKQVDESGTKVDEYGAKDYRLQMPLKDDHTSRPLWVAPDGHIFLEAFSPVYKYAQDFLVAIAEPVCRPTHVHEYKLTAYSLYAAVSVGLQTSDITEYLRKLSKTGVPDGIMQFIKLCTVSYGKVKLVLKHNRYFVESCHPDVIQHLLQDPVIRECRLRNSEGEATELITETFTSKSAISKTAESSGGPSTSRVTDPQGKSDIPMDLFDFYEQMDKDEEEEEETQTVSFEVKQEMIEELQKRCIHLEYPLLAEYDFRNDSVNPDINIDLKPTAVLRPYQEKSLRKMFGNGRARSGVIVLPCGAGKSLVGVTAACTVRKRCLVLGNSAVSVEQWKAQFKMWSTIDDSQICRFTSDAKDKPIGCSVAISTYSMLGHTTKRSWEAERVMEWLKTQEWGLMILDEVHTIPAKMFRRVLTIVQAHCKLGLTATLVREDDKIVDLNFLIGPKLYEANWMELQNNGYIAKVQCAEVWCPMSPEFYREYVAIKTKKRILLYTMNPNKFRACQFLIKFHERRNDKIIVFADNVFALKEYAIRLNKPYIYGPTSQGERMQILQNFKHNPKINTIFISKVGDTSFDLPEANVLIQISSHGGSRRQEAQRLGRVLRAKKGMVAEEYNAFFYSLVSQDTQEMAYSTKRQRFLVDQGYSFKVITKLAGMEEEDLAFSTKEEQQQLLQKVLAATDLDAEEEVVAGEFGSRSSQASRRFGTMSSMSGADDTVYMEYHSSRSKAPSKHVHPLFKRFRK

histone H2B = histone H2B (X. laevis, UniProt P02281)
histone H4 = histone H4 (X. laevis, UniProt P62799)

Row | binding result (TFIIH subunit XPB) | binding result (histone H2B) | binding result (histone H4) | Binder
1 | binds | – | – | B1
2 | – | binds | binds | B2
